# Target: TGF-β receptors on MFB-F11 cells
# Conditions: scale: fold less potent than HEK293T-expressed TGM1
substance,measurement,value
"algal-expressed TGM1 (Heligmosomoides polygyrus TGF-β mimic, mature 5-domain, FLAG-tagged) (ligand)","MFB-F11 Smad-responsive reporter cells, secreted alkaline phosphatase (405 nm), log dilutions starting at 100 ng/mL, 24 h; potency against HEK293T-expressed TGM1",10

# From article PMC8516079
